# Assay results: the DeepSol protein solubility set
# Assay: soluble on expression in E. coli; label from the status in PepcDB or PDB records
row,Sequence,soluble on expression in E. coli
1,MGSDKIHHHHHHMQNPPPPFNQNHLLAALPPAELERLKPHLELVHMPLGDVLCESGGRLSYVYFPTSAIISLHYILENGSSSEVAGVGNEGLLGISLFMGGENTPTWATVQTAGYCYRLKGPLLLQEFNQGGPLQRVLLRYTQALITQISQTAVCNRHHTIEQQLCRWLLLTLDRLNSQELVMTQELIASMLGVRREGITEAAGKLQQAEIIRYRRGHITVLNRAGLEGHVCECYEVVKKEFERLFRDVKKS,not soluble
2,MNYWLMKSEPDEFSIEDLKARPNQTEPWFGIRNYQARNYMRDAMQIGDKVFFYHSSCKVPGIVGIAEVVTNAYPDSTAFDPESTYFDPKSDPSNPRWLRVDIRFVEQFKEIIPLSLIKSLPQLADMYLVSKGSRLSIQPVTAEQWQAVLMLSRLEHHHHHH,soluble
3,MSAQRIQKVDILRYDPANDAEPHMQRFEVPFDETMSVLDAIGYVKDHLDKDLSYRWSCRMAICGSCGIMVNGVPKLACKSFLRDYPEGVKIEPLANFPIEKDLIVDMTPFIERLEAIKPYIIGNDRKPEDGTNLQTPEQMARYKQFAGCINCGLCYAACPQFGLNPEFLGPAALTLAHRYNLDSRDNGKAERMKLINGDNGAWGCTFVGYCSEVCPKHVDPAAAVNQGKVESSLDFVIAMLNPDGSPKKVEA,not soluble
4,MSLYYINLKQERILKFIEKFGVARIEHMKRILNIKDIDNQFKILIRQRKVKLVFNDICVLDGKKELNIKMIKALDLYSYLHLNNGGIPIEWCMPQDFPFTIAFFRNSKVFDVAIINEGEETIYSSAINRGVSERVIVVLSEENQKENIKINKQIKCCTIEDGVLNFEGHHHHHH,not soluble
5,AHHHHHHGSVLKCVVCGREYPEDEVRYRCECGGLLEVVIDLDKVDTSIFNGKEIKLWKYESWLPVKKRVSLEEGGTPLYRLLNLESDLGVKELYAKNEGANPTGSFKDRGMTVGVSKALELGMDKVICASTGNTSASLAAYAAKAGIKAYVLIPSGKIALGKLAQAIIYGARVVPIKGNFDDALRVVVETSKELGIYMLNSINPFRLEGQKTIAYEIYDQLGKVPDNVILPVGNAGNISAIWKGFKEMYEAGVIDELPRMIGIQAEGASPLAKAWKEKRKFQPEESPETIASAIRIGNPANWIKAWRAVEESGGLFESVSDEEILRAQKLLASREGLFVEPASAASLAGLIKLLESGEISRNESYVLITTGHGLKDPNIVIKNFQVPEPIDPTLEAFKEVIE,soluble
6,YGHNELPAEEGKSLWELVIEQFEDLLVRILLLAACISFVLAW,soluble
7,MSLLDIIFPPNNNDDDFYGQHFSLIDSIIVKVAQDSNLSQSLRVYQYLYSWRLFGCMVAVVNNNKTLELGDKRGAIEALYEFITRFRIENPTGDVERKVKLKILEIYMIILNLLKSFENNQDQWFLKTNSYKETTTTRRRSIVSLNDLKLEYLEWLKNLDEDVSMFTEGHHHHHH,not soluble
8,MISSWEQKNNCVMPEDVRNFYLMTNGFHMTWSVKLDDHIIPLGSMVINGISKLTQLIQSSVYSLPNAPTLADLEDDSQEGNEDHQLEKPHFDCRSAIFELDSCGGNGKVCLVYKNGKPGLAHDTEIWFLDRALYWHFLTDTFTAYYRLLITHLGLPQWQYAFTSYGISPQAKQWFSMYKPITYNTSLLTEEPDTFVNKLDPSKVFKSKNKILIPKKKGPVQPVSGQKGPGPLAPPTSKPSAGCGNPVRK,not soluble
9,MSLKTKLIVVLGPTAVGKTALGIKLAQQFHGEIISGDSQQVYRKLDIGTAKATAAEQAAVPHHLIDVREVDENYSAFDFVQEATKEIANICARGYLPIIVGGTGLYLQSLLEGYHLGGQVDHEAVLAYRRELETLSDTELSQLVETKQIVMTEPNRRRLMRSLELHKFSQGVQNQGSPYDVLLIGLNDNRQDLYERINARVDKMMAAGLLDEAKWLYDNYPHAQATRGIGYKELFPYFAGDIGLEEAVEKIKQNTRRFAKRQLTWFKNRMAVSFYSVSDSDYKGKINQAVVDFLRNEGHHHHHH,soluble
10,MTQVTVKELAQVVDTPVERLLLQMRDAGLPHTSAEQVVTDSEKQALLTHLKGSHGDRASEPRKITLQRKTTTTLKVGGSKTVSVEVRKKKTYVKRSPDEIEAERQRELEEQRAAEEAERLKAEEAAARQRAEEEARKAEEAARAKAAQEAAATAGAEPAVVADVAVAEPVAKPAAVEERKKEEPRRVPKRDEDDDRRDRKHTQHRPSVKEKEKVPAPRVAPRSTDEESDGYRRGGRGGKSKLKKRNQHGFQNPTGPIVREVNIGETITVAELAAQMSVKGAEVVKFMFKMGSPVTINQVLDQETAQLVAEELGHKVKLVSENALEEQLAESLKF,not soluble
11,MEETEFVPHKLTELRVGTLYGPQIYMTSGQGNSGFDYDMAVLFAEYLDVPLKMVPYTNLAELYDALKKNEIDIIAAGMTETPARREHFRLGPPLYRVNQVLVYREGMPAPKDISDLKGKITVIADSSFVETLTQLQKRHPTLVWDQVTDKDNEELLTMIANKEIDYTIADSSSVQINRRYLPVLRSGLVLEEKLNVVWLLPPTHSDGLMSQLLAFWHQEKLAGTLDHLNEKYFGHVKRFDYIDTRAFLRAIETVLPRYRQHFETHAGDLDWRKLAATSYQESHWNPNARSPTGVRGMMMLTQPTAKEIGITNRLDAEESIRGGAAYLRDMINRLPESIPESQRMWFALASYNIGYAHVEDARKLAESMELNPNAWQDLKKVLPLLQKRKYYQKTRYGYARGSEAVHYVDSIRRYYDTLVWVDNQSKQQNSEEVAPSDLTAEETPVPAPGTLSPDKPKLEHHHHHH,soluble
12,MIELSHEEELRYNRQIILKSVDFDGQEKLKASKMLIVGLGGLGCAASQYLAAAGVGNLTLLDFDTVSLSNLQRQVLHCDARLNMPKVESAKIALEQINPHINIETINAKLDEEKLAEIIPHFDIVLDCTDNVEIRNQLDRQCNHMKVPLISGAAIRMEGQVSVFTYEPNTPTYRDLSKLFRQNVLSCVEAGVLAPIVGIVGCIQALEAIKVRLKIGKNLCGRLLMIDGFSMNIREIKLPTNME,not soluble
13,MGSDKIHHHHHHMLPMADQIQTLQEQVLQARSNGQKLNIVGGGTKSFMGRQGCAEAGTLSLAEHTGVVEYHPVELVLTVRAGTPLKEIEAVLAEQGQCLHFEPPHFGDASTIGGTLACNLSGPARPWAGSVRDQVLGIRLLNGKGEHLRFGGQVMKNVAGYDVSRLQAGAMGTLGVITEISLKVMPKPAATTTLVREMTMDEVVEYMNRRAGEPKPITGACWVDGKVYLRLAGAKSAVEATAEQWGGQVLADGEQFWRQVQDMQHPFFDDPELPLWRFSVDSTAKTPELDGPWMIDWAGSQRWYRGQASLDQLEPLARAAGGQVSLFRGGDRTGEVMHGQPQALKTIQQRVKKSFDPDAIFNPGRLYSWL,not soluble
14,MRSLADFEFNKAPLCEGMILACEAIRRDFPSQDVYDELERLVSLAKEEISQLLPLEEQLEKLIALFYGDWGFKASRGVYRLSDALWLDQVLKNRQGSAVSLGAVLLWVANRLDLPLLPVIFPTQLILRIECPDGEIWLINPFNGESLSEHMLDGWLKGNISPSAELFYEDLDEADNIEVIRKLLDTLKASLMEENQMELALRTSEALLQFNPEDPYEIRDRGLIYAQLDCEHVALNDLSYFVERCPEDPISEMIRAQINNIAHKHIVLHMAGDPLEHHHHHH,soluble
15,MGHHHHHHSHMVKFKVIALAALMGISGMAAQANELPDGPHIVTSGTASVDAVPDIATLAIEVNVAAKDAATAKKQADERVAQYISFLELNQIAKKDISSANLRTQPDYDYQDGKSILKGYRAVRTVEVTLRQLDKLNSLLDGALKAGLNEIRSVSLGVAQPDAYKDKARKAAIDNAIHQAQELANGFHRKLGPVYSVRYHVSNYQPSPMVRMMKADAAPVSAQETYEQAAIQFDDQVDVVFQLEPVDQQPAKTPAAQ,soluble
16,MGSDKIHHHHHHVTVSAFVLLLCRRAIVTLDSTPAFSTDPELICFSSRFQDEMEMYAPAEVVAHYLDRHEEWFRRCAEPMATTSIGKDAYAIVLGRYGSLGFEVEPQIGLELLPADQGVYRICTVPVPGYESQGYQVDFQASLSLDRLTHETEAPVTEATAVAWDLLLTVGIRLPRFIHVLPQKLVHSTGDHLLRQIVRQTSRRLTHRVQEDFHQQLNLPLPPRRHARF,not soluble
17,GAGTLIKDNLKRDLITSLPFEISLKIFNYLQFEDIINSLGVSQNWNKIIRKSTSLWKKLLISENFVSPKGFNSLNLKLSQKYPKLSQQDRLRLSFLENIFILKNWYNPKFVPQRTTLRGHMTSVITCLQFEDNYVITGADDKMIRVYDSINKKFLLQLSGHDGGVWALKYAHGGILVSGSTDRTVRVWDIKKGCCTHVFEGHNSTVRCLDIVEYKNIKYIVTGSRDNTLHVWKLPKESSVPDHGEEHDYPLVFHTPEENPYFVGVLRGHMASVRTVSGHGNIVVSGSYDNTLIVWDVAQMKCLYILSGHTDRIYSTIYDHERKRCISASMDTTIRIWDLENGELMYTLQGHTALVGLLRLSDKFLVSAAADGSIRGWDANDYSRKFSYHHTNLSAITTFYVSDNILVSGSENQFNIYNLRSGKLVHANILKDADQIWSVNFKGKTLVAAVEKDGQSFLEILDFS,soluble
18,MSWTVDIPKEALPDLPPLPDGLQQQFENVIARDAKQQPSWDKATAETVRKILESVPPIVVAPEVRELKQHLADVANGRAFLLQGGDCAETFESNTEPHIRANIKTLLQMAVVLTYGASTPVVKMARIAGQYAKPRSSDLDANGLPNYRGDIVNGVEATEEARRHDPARMIRAYANSSAASNLVRALTSSGTADLHRLTGWNREFVASSPAGARYEALAQEIERGLRFMSACGVNDHTLHSADIFCSHEALVVDYERAMLRLAEDEEGNVELYDLSAHQLWIGERTRGLDDFHVNFAAMIANPIGIKIGPTATPEEVVAYANKLDPNFVPGRLTIVARMGHDKVRDVLPGIVKAVEESGHKVIWQSDPMHGNTFTSSNGYKTRHFDKVIDEVQGFFEVHRALGTHPGGIHIEFTGENVTECLGGAEDITDVDLPGRYESACDPRLNTQQSLELSFLVAEMLRN,not soluble
19,VTNSTDGRADGRLRVVVLGSTGSIGTQALQVIADNPDRFEVVGLAAGGAHLDTLLRQRAQTGVTNIAVADEHAAQRVGDIPYHGSDAATRLVEQTEADVVLNALVGALGLRPTLAALKTGARLALANKESLVAGGSLVLRAARPGQIVPVDSEHSALAQCLRGGTPDEVAKLVLTASGGPFRGWSAADLEHVTPEQAGAHPTWSMGPMNTLNSASLVNKGLEVIETHLLFGIPYDRIDVVVHPQSIIHSMVTFIDGSTIAQASPPDMKLPISLALGWPRRVSGAAAACDFHTASSWEFEPLDTDVFPAVELARQAGVAGGCMTAVYNAANEEAAAAFLAGRIGFPAIVGIIADVLHAADQWAVEPATVDDVLDAQRWARERAQRAVSGMASVAIASTAKPGAAGRHASTLERS,soluble
20,MGSDKIHHHHHHMTDVAKFGISRLDELLGGGLDRYTENLIIGRSGIGKTILAAHWAAEGARNDETVVYLSTTMNKKNCKAYLGRFPFMEDVYDKIKWRFIRVDPKFVLPLTREKIVEGLRATFGMDGKDIDRVVFDSCTDLELALADPVLYRRALTYMSDLSYDYEITSLWIEEAPMQGDWSSTKNIVDSVIFLNLLRTQEGYQRAMRILKKYRTRVPLEWIPYEITDEGVVIKDGYIVKRSYDYEYKRG,not soluble
21,MSLFDFFKNKGSAATATDRLKLILAKERTLNLPYMEEMRKEIIAVIQKYTKSSDIHFKTLDSNQSVETIEVEIILPR,not soluble
22,SFREQDIYLPIANVARIMKNAIPQTGKIAKDAKECVQECVSEFISFITSEASERCHQEKRKTINGEDILFAMSTLGFDSYVEPLKLYLQKFRE,soluble
